Source: the DeepSol protein solubility set

assay: soluble on expression in E. coli; label from the status in PepcDB or PDB records

| Sequence | soluble on expression in E. coli |
| --- | --- |
| MQYSMGIDAGGTYTDSIIIRDSDGKVMDSNKALTTYPDLLAGIKNSIDGLDEQYLKDVKMVSVSTTLATNTILEKNGYPVGLILVGDYEVPERMQAEYYTVVKGGHDHHGAELTSLDMEAVEAFVNKVKDRVSAFAVSSYFSIRNPAHELAIKARLKELGFSVVCGHELSLDLGAYERGITAYLNAQLIPIASQFILSIREEIRRRGMDARLLMLKCDGSVVGINEALEKPIESIFSGPAASLVGASHLSGLETCAVIDVGGTSTDVSMLENGLPELCSEGAVVGGWQTKVKAIRMETSAMGGDSHVWVKNMKINIGPRRVIPLCVAAVKYPGFLEILKKGRIPGTMHLEENIQPTKFFIRTGLEASNLGSYEKELFDRIGDTPASLNDIFWETQKTLSPGLLDSLLRKRLIQAIGFTPTDALHVLGEYRGWNTEASIAGAKLLERYTHKDYIESARALEHHHHHH | not soluble |
| MSQTITVKVKLLPTKEQIQLLEQSSYEYIKVINTLVSEMAEAKKSTKKSTKDVEANLPSAVKNQAIKDAKSVFSTKVKKSKYKVIPILKRPVCVWNNQNYSFDFTHISVPLMVNGKSTRLKVRALLTDKYNRNFNLLTHKLGTLRITKKSNKWIAQISVTIPTNEKTGTKILGVDLGLKVPAVAITDDEKVRFFGNGRQNKYMKRKFRSVRKKLGENKKLNAIRQLDDKEQRWMQDQDHKVSREIIDFATDNNISVIRLEQLTNIRQTARTSRKNEKNLHTWSFYRLAQFIEYKANLVGIKVEYVNPAYTSQTCPKCSEKNKAPDRKYKCRCGFEKHRDIVGAMNIRYATVIDGNSQSALEHHHHHH | soluble |
| KINDFSIKHGLTEKFVVSFAGTLGFSQDMEVIIRAANELKEYKDIVFIIVGNGVRLEESKKLAESLNLQNIRFIPSVPREIYPLVLHSSDVSLATLTKDVKTPVVPSKILSIMSAGIPVIAVMNLEGDAPKLVEKANAGFAIPAGDYKSLAEKILLLYKNPELRESLGRNGRRY | not soluble |
| GSTAMATTMEQEICAHSMTFEECPKCSALQYRNGFYLLKYDEEWYPEELLTDGEDDVFDPDLDMEVVFETQ | soluble |
| NEVESGYYFTTLDHYIYEAEEANLGPGVVVVERQYIQDRIPSWTGPGFVRVPEGAYLEFFIDNIPYSMEYEILIRYEPQLPDHWEKAVITVQRPGKIPASSRCGNTVPDDDNQVVSLSPGSRYVVLPRPVCFEKGMNYTVRLELPQYTASGSDVESPYTFIDSLVLMPYCKSLDIFTVGGSGDGEVTNSAWETFQRYRCLENSRSVVKTPMTDVCRNIIFSISALIHQTGL | soluble |
| MNSSPKMKHDVFISFRSKDTRDNFVSHLCGCLRRKRIKTFLYDELPADERYEESLKAIEVSKISVIVFSENFGDSRWCLDEVVAILKCKEKFGQIVIPVLYHVDPLDIENQTGSFGDAFAKRRDKAEQLQEWKDSFTEAINLPGWSTAYLRYNPKLILSIKVTVVSELQDVLISGINIMITAFSTCK | soluble |
| MGSDKIHHHHHHMNVLNDSVDDTVQKKVAFFLPTLNIGGIERVFITYANYLIDKKYNIYFILCKRRGELLSLLDSNIKLYHLGNVQLKFSFLKLRQSLKEIQPDVIVSGGDFPNLILIVSSLGLKKVPKIIISQHNYYNVETRRLGWWAYGTCFFMKKIYPKADKIIAVSDGIREFLIKKIHISADRIIKLPNPIDIKGIKEKSLELLDITLPDRYILFVGRLSYVKNLFFLLDAFEMGKLDNNSLVIVGDGEMRNALMKKAKKMHKADNIIFLGAMENPLPILKKAQLLVLPSFSEAYPTILLEALCLYIPVVSTPTKGAKEILHNVSGTYISTDCYNIEEFARLMERGVKERISHKVIDDKIGLNSIENIGLRIQREIIEDNRL | not soluble |
| MAHHHHHHMAFTDAVAGKTSLPPPVAIIVGHNIDASAMPLTYERNRLVIDMLQHYACPVFSHKKSGDAMNTVSSDVFEWVLEPLPVVGVEDMTAFHDRAYLNYLSIREALSEVDERASTVKRSRAEGIQPPVSRRSSAQNQPPLRVLPDLVPIPTDEEYGLVNENMPFVGMWRTIQATVSGTLLAARLLAQPGRFAAIHWFGGRHHAKQSTAGGFCFANDVVLGVLELKKLLSSDKKGILVVDVDAHHGDGTQSAFLHDNSVLTLSMHAHGVGIFPGSGGIEEIGAGLGRGFTMNVPLPEGATDILAVTLMYRSIHFAFKKLGEGLAAIVIVCGSDALSGDPLGALNLTVGGMQSIIRLLLKEAARRSLKVLLLGGGGYVDTSCARLAGVVTKDVLSCAAAMRLGKTEYFGDSANLGDNLGVAVPEGCEYFTRYGPSFLMHGLPPARVSKLYRLPYGSPLFMRMQRAATKEALRRRRNQEQDEEEEEEEEEEEEEEEEEEEEEEEEEVEEEEGEGEEEA | not soluble |
| MAHHHHHHMERFRSEDVAEGAFTLNLDECGASLIELHAPLNGLAFMMQDAVVAQLAMGSTLAGSDAAKAPQDDHDGTTVNFRTLSTSAAGAIDALLSEMSARRVHFVSGVVTDAMLDVEGVTIIDPLPLEPRLNRFQRNMIRLSLTLEQQFFLLAEYLGNTSGGCAHGVIGSGEAAALAVDVWRVAGFCDALVDHLWWRGRCVCGGPFSWRCRWDCAARGVARRCARACRVLGVFTPAR | not soluble |
| KAFLEDMKKYAETFLEPWFKAPNKGTFQIVYKSRNNSHVNREEVIRELAGIVCTLNSENKVDLTNPQYTVVVEIIKAVCCLSVVK | soluble |
| MPGAMESPNESEDVSKTFFKLCDGLRLGELVTTEHFRLSDVMSAIELGEPKMDVGVGSKHIKTLKEAISGGLYADDYPFQLAIMDSTLAMVVAWLEGSALGSTVWTNVLLSNVTFVKHPVFHPFASGVNLFIRNAHALINSVGNLEELPEDFNPQMLFSHQRWAPRRVVVQLMREQVTLLGTTGRKWRESAFSKQAYDICCAVASRLEMFIMLLEIIGLLVAPEIEDPNFDHKVHLGDFYVHEKEYEGAEENSDEKSEESTSDPTPSSEAKSETTEKKEQKSNDEATDETDQNDDENVGDDEDEDDMKQFKPNFGFASILAERLCKVTKAYAETVKLGRRAPDNIDGDGDYLWLGAYEPKTCIRMIPACFPRKIKVPSRQEAADWWVKCAERIYHLCIVTPKTSKDLNYLFYFARTFGQNACVFTRSLLQICMFPVDNHLCGDENRSIADAVEYSLSNCFCPQILDRVSPVYKDQTAQSLYVLFLNHMSKLAITVYGSFGCNLSRQRDRLEMAIEDLGQIHSYAGRLEERTDEVLLSGKMVTAKEQNYSYHSVATFVFHNLLAIINHYFELGFRMDLYVPYEFPYIYWFIGSVQAHWMRTTLERSQEIQLNVYQANPLRETKNKKLWEERCKLGEELKRRVAAHQFSVLNQIAISMISDGVVRLTVVLIRKGIIKMPKGGDDAEKLRFERRFEPFDSLGPPVRVDYERFKSDSGIDQMYEDKIETLIDQAQKSFNEAREHLEKIDNSVEQNREMMQLIHVAKSNIIACRVLKLDLTDRNVVWSFSEEIPMFPCLKISKK | not soluble |
| MGSDKIHHHHHHKETGNMPEIKKQPIASAVPDFNADSAYAYVANQVAFGPRVPNTAAHKACGDYLASELKRFGAKVYQQEAILTAYDGTKLEARNIIGSFDPENSKRVLLFAHWDSRPYSDHDPDPSKHRTPLDGADDGGSGVGALLEIARQIGQKAPGIGIDIIFFDAEDYGTPEFVTDYTPDSWCLGTQFWAKNPHVPNYTAEYGILLDMVGGKNATFFKEQQSLRAAAPIVEMVWSAARDLGYGKYFINAAGGAITDDHQYVISGRNIPSIDIINYDPESKTGFASYWHTQKDNMENIDRETLKAAGQTVLEVIYNR | not soluble |
| MADDVDNDDKLEKPVDLIWGCELNEQNKTFEFKVEDDEEKCEHQLALRTVCLGDKAKDEFHIVEIVDQEEGAEKVVPIATLKPSILPMATMVGIELDPPVTFRLKAGSGPLYISGQHVAM | soluble |
| MSLENLARFLSTTLKQLRQQRGWSLSRLAEATGVSKAMLGQIERNESSPTVATLWKIATGLNVPFSTFISPPQSATPSVYDPQQQAMVITSLFPYDPQLCFEHFSIQMASGAISESTPHEKGVIEHVVVIDGQLDLCVDGEWQTLNCGEGVRFAADVTHIYRNGGEQTVHFHSLIHYPRSEGGSHHHHHH | soluble |
| ADQPIDADVTVIGSGPGGYVAAIKAAQLGFKTVCIEKNETLGGTCLNVGCIPSKALLNNSHYYHMAHGTDFASRGIEMSEVRLNLDKMMEQKSTAVKALTGGIAHLFKQNKVVHVNGYGKITGKNQVTATKADGGTQVIDTKNILIATGSEVTPFPGITIDEDTIVSSTGALSLKKVPEKMVVIGAGVIGVELGSVWQRLGADVTAVEFLGHVGGVGIDMEISKNFQRILQKQGFKFKLNTKVTGATKKSDGKIDVSIEAASGGKAEVITCDVLLVCIGRRPFTKNLGLEELGIELDPRGRIPVNTRFQTKIPNIYAIGDVVAGPMLAHKAEDEGIICVEGMAGGAVHIDYNCVPSVIYTHPEVAWVGKSEEQLKEEGIEYKVGKFPFAANSRAKTNADTDGMVKILGQKSTDRVLGAHILGPGAGEMVNEAALALEYGASCEDIARVCHAHPTLSEAFREANLAASFGKSINF | soluble |
| MSLGAALSDTNYAVIYDLHSHTTASDGLLTPETLVHRAVEMRVGTLAITDHDTTAAIPAAREEISRSGLALNLIPGVEISTVWENHEIHIVGLNIDIAHPAMRDFLAQQTERRQARGRLIAERLEKAHIPGAWEGALRLANGGAVTRGHFARFLVECGKAATMADVFKKYLARGKTGYVPPQWCTIEQAIDVIHHSGGKAVLAHPGRYDLSAKWLKRLVAHFADHHGDAMEVAQCQQSPNERTQLATLARQHHLWASLGSDFHQPCPWIELGRKLWLPAGVEGVWQTWEQPQISEGHHHHHH | soluble |
| MILTTSRKPSQRTRSFARDLERTLNIPYVQRGKLSLKEIFEIDKHVLLIGEFKANPGTLVVYDVENEKRLSSFISVKLQREICGEKIYNDDGIRIKISRELKDNEEFQKYYEIYDEFLFQHLNINEDSDITLRLEKDPKYLFAIQFYKGRVKIGPLIRIKSIKLFDSLLLEHHHHHH | soluble |
| MRVEIIFLGCGGGRWATITQKKATGGFRIHTNELRMHVDPGPGAIVRLNELKISPWRTNALFISHCHPDHYTDGEIIVEAITQGMTKKRGVFLGSLSVVEGFGEYEYVVSKYHQSKLEEVRVLYPGDSAELYDTTIKATHTKHGDPFGIGFRLSTIYGDIGYTSDTEFIPQLIEDFDGVRILIANIVRKKNERIKGHLCSNDAIDLINSMNKKPELLIMNHMGVKMTNPQIEAEYISQNTGIEVIPARLGLKVELLNGKYKYQLIKLEHHHHHH | soluble |
| MASSSSGGAGGAGGASGAPEVKIHNVYMSNVEEEFARIRGFVEDYPYVAMDTEFPGVVATPLGTFRSKEDFNYQQVFCNVNMLKLIQVGFAMVNDKGELPPTGDVWQFNFNFSFAEDMFSHESVEMLRQAGIDFTLLQNNGIPTAVFGELLTTSGLITDPRITWLTFSSGYDFGYLLKSITLGDLPKEESTFFMCHKTLFPTSFDIKILLRTPNCASAKLKGGLQEVADQLDVKRQGVRHQAGSDALLTAATFFKIKKQFFGDNWNQIAPLICGHMFGLGSSLSLFHSSGSTSRLGDETPQGLIGVPQQA | not soluble |
| MAHHHHHHMTPTSAITTSAPATATTAEQTPLPPEQTSMFDAPGTPTPAVSAASARATGAQDSSTLMEGAKTETTKQNLAMKGLDRWMKMQLPADWMECIRQNLQLDKHGQPMHAVTEMKDAIPLLITPLTGDVKFFPYFVCSMDVAVRYHYVIQNERDPDTTAVIDDLQRRFGNSGRLLVVRNRYNRGYSGSMNQAFEWALKERTAEEVPWVFACGVDAIFEPGLLAKMIEVVQQNTRGDAAMLAALRAEVELEERLVREGNYSYYERWAPRGRPLKVLRSGYPGVPLNVRTAPLLPDRIRYTVADENRESGIVRPAELRTRFFGNYVATVTPVPDALGTIAVTRLALSAVGYFDENYFPAYMDDIDLRWRHFAYGFGALHGERNGPVTRWHHYNAANLRGSPFVDPDLEKYGTEDNYSRRAFLSYIRRSKGIYDKLKYGPRDMDGVWRQAAQKAEFKYSSFNVSHYPADTWVLDEDARGCMFHHTYNYKTQNWSRPSDCSYNPRTLEESGILGVDQLASYRSMLAEKAFAYQ | not soluble |
